Reference: US20220088075A1 (University of Pennsylvania, published 2022)

How the values were obtained:
[1] = molecular target: T1, wild type hEGFR (human EGFR wild type) on transiently transfected HEK293F cells (human, UniProt P00533 25-1210); test: FACS, purified His-tagged scFv on HEK293F cells transiently transfected with wild type hEGFR, anti-poly His PE
T1 construct: whole, on cells; also called wild type EGFR
Experimental: (§1) HEK293F suspension cells were transiently transfected with either wild type hEGFR or hEGFRvIII and were harvested 2 days after transfection. Approximately 5e5 cells/per well were transferred to a BD Falcon 96 well plate. The cells were spun down at 900 rpm (Sorval Legend XT centrifuge) for 3 minutes. The supernatant was removed. Anti-EGFRvIII scFv protein samples were diluted in DPBS with 5% FBS. The samples were added into the wells, mixed and incubated for 1 hour. The cells were washed twice in the DPBS with 5% FBS. The cells were incubated with anti-poly His PE (R&D) for 1 hour, washed twice before FACS analysis (LSRII from BD Biosciences).

[2] = molecular target: T2, hEGFRvIII (human epidermal growth factor receptor variant III) on transiently transfected HEK293F cells (human, UniProt P00533 25-1210); test: FACS, purified His-tagged scFv on HEK293F cells transiently transfected with hEGFRvIII, anti-poly His PE
T2 construct: whole, on cells; also called human EGFRvIII
Experimental: as §1

[3] = molecular target: T3, EGFRvIII-Fc fusion protein (UniProt P00533 25-645, limits assumed); test: flow cytometry, Jurkat E6 cells electroporated with CAR vector, titrated EGFRvIII-Fc, PE anti-human IgG Fc
T3 construct: not shown: detected with PE anti-human IgG Fc
Experimental: Jurkat E6 cells were electroporated with either CAR9 vector or CAR10 vector using Amaxa Cell Line Nucleofector Kit V (Lonza, Colgne AG, Germany) and program X-001. One day after the transfection, 0.5×10⁶ cells were placed into each well of a V-shape 96 well plate (Greiner Bio-One, Germany) in 0.2 ml FACS buffer (DPBS buffer containing 5% FBS) and incubated for 10 minutes at room temperature. Cells were then spun down and resuspended in 0.2 ml of the FACS buffer with different concentrations of EGFRvIII-Fc or EGFRwt-Fc and incubated at 4° C. for 30 minutes. Cells were then washed with FACS buffer three times, and incubated with 0.2 ml of the FACS buffer with 2 μl of PE anti-human IgG Fc (Jackson ImmunoResearch Laboratories, West Grove, Pa.) for 30 minutes at 4° C. in the dark. After washing with 0.2 ml of FACS buffer three times, cells were analyzed on a LSRII (BD Biosciences, San Jose, Calif.) machine using the FACSDiva software (BD Biosciences, San Jose, Calif.). Immunofluorescence staining was analyzed as the relative log fluorescence of live cells, and the percentage of the PE positive cells were measured.

Row | binding result [1] | binding result [2] | fold lower binding compared to CAR9 [3] [fold] | Binder
1 | no binding | binds |  | CAR1 soluble scFv (humanized anti-EGFRvIII scFv, VH1-VK4) (scFv, not tied in words; also called CAR1 scFv) scFv: EIQLVQSGAEVKKPGATVKISCKGSGFNIEDYYIHWVQQAPGKGLEWMGRIDPENDETKYGPIFQGRVTITADTSTNTVYMELSSLRSEDTAVYYCAFRGGVYWGQGTTVTVSSGGGGSGGGGSGGGGSGGGGSDVVMTQSPDSLAVSLGERATINCKSSQSLLDSDGKTYLNWLQQKPGQPPKRLISLVSKLDSGVPDRFSGSGSGTDFTLTISSLQAEDVAVYYCWQGTHFPGTFGGGTKVEIKGSHHHHHHHH
2 | no binding | binds |  | CAR2 soluble scFv (humanized anti-EGFRvIII scFv, VK4-VH1) (scFv, also called CAR2 scFv) scFv: DVVMTQSPDSLAVSLGERATINCKSSQSLLDSDGKTYLNWLQQKPGQPPKRLISLVSKLDSGVPDRFSGSGSGTDFTLTISSLQAEDVAVYYCWQGTHFPGTFGGGTKVEIKGGGGSGGGGSGGGGSGGGGSEIQLVQSGAEVKKPGATVKISCKGSGFNIEDYYIHWVQQAPGKGLEWMGRIDPENDETKYGPIFQGRVTITADTSTNTVYMELSSLRSEDTAVYYCAFRGGVYWGQGTTVTVSSGSHHHHHHHH
3 |  |  | ~40 | CAR10 (chimeric antigen receptor with anti-EGFRvIII clone 139 scFv), expressed on Jurkat E6 cells or primary human T cells (other) DIQMTQSPSSLSASVGDRVTITCRASQGIRNNLAWYQQKPGKAPKRLIYAASNLQSGVPSRFTGSGSGTEFTLIVSSLQPEDFATYYCLQHHSYPLTSGGGTKVEIKRTGSTSGSGKPGSGEGSEVQVLESGGGLVQPGGSLRLSCAASGFTFSSYAMSWVRQAPGKGLEWVSAISGSGGSTNYADSVKGRFTISRDNSKNTLYLQMNSLRAEDTAVYYCAGSSGWSEYWGQGTLVTVSSTTTPAPRPPTPAPTIASQPLSLRPEACRPAAGGAVHTRGLDFACDIYIWAPLAGTCGVLLLSLVITLYCKRGRKKLLYIFKQPFMRPVQTTQEEDGCSCRFPEEEEGGCELRVKFSRSADAPAYKQGQNQLYNELNLGRREEYDVLDKRRGRDPEMGGKPRRKNPQEGLYNELQKDKMAEAYSEIGMKGERRRGKGHDGLYQGLSTATKDTYDALHMQALPPR
4 | no binding | binds |  | CAR4 soluble scFv (humanized anti-EGFRvIII scFv, VK2-VH5) (scFv, also called CAR4 scFv) scFv: DVVMTQSPLSLPVTLGQPASISCKSSQSLLDSDGKTYLNWLQQRPGQSPRRLISLVSKLDSGVPDRFSGSGSGTDFTLKISRVEAEDVGVYYCWQGTHFPGTFGGGTKVEIKGGGGSGGGGSGGGGSGGGGSEIQLVQSGAEVKKPGESLRISCKGSGFNIEDYYIHWVRQMPGKGLEWMGRIDPENDETKYGPIFQGHVTISADTSINTVYLQWSSLKASDTAMYYCAFRGGVYWGQGTTVTVSSGSHHHHHHHH
5 | no binding | binds |  | CAR8 soluble scFv (humanized anti-EGFRvIII scFv, VK2-VH1) (scFv, also called CAR8 scFv) scFv: DVVMTQSPLSLPVTLGQPASISCKSSQSLLDSDGKTYLNWLQQRPGQSPRRLISLVSKLDSGVPDRFSGSGSGTDFTLKISRVEAEDVGVYYCWQGTHFPGTFGGGTKVEIKGGGGSGGGGSGGGGSGGGGSEIQLVQSGAEVKKPGATVKISCKGSGFNIEDYYIHWVQQAPGKGLEWMGRIDPENDETKYGPIFQGRVTITADTSTNTVYMELSSLRSEDTAVYYCAFRGGVYWGQGTTVTVSSGSHHHHHHHH
6 | no binding | binds |  | CAR5 soluble scFv (humanized anti-EGFRvIII scFv, VH1-VK2) (scFv, also called CAR5 scFv) scFv: EIQLVQSGAEVKKPGATVKISCKGSGFNIEDYYIHWVQQAPGKGLEWMGRIDPENDETKYGPIFQGRVTITADTSTNTVYMELSSLRSEDTAVYYCAFRGGVYWGQGTTVTVSSGGGGSGGGGSGGGGSGGGGSDVVMTQSPLSLPVTLGQPASISCKSSQSLLDSDGKTYLNWLQQRPGQSPRRLISLVSKLDSGVPDRFSGSGSGTDFTLKISRVEAEDVGVYYCWQGTHFPGTFGGGTKVEIKGSHHHHHHHH
7 | no binding | binds |  | CAR3 soluble scFv (humanized anti-EGFRvIII scFv, VH5-VK2) (scFv, also called CAR3 scFv) scFv: EIQLVQSGAEVKKPGESLRISCKGSGFNIEDYYIHWVRQMPGKGLEWMGRIDPENDETKYGPIFQGHVTISADTSINTVYLQWSSLKASDTAMYYCAFRGGVYWGQGTTVTVSSGGGGSGGGGSGGGGSGGGGSDVVMTQSPLSLPVTLGQPASISCKSSQSLLDSDGKTYLNWLQQRPGQSPRRLISLVSKLDSGVPDRFSGSGSGTDFTLKISRVEAEDVGVYYCWQGTHFPGTFGGGTKVEIKGSHHHHHHHH
